Test results from patent publication US11491212.

B1: FIXa-Y155F/K247N/N249S/R318Y/T343R/R403E/E410N (protein)
chain 1: not shown
chain 2: not shown
B2: FIXa-K247N/N249S/R318Y/T343R/R403E/E410N (protein)
chain 1: not shown
chain 2: not shown
B3: FIXa-Y155F/K247N/N249S/R338E/E410N (protein)
chain 1: not shown
chain 2: not shown
B4: FIXa-Y155F/K247N/N249S/R318Y/T343R/R403E (protein)
chain 1: not shown
chain 2: not shown
B5: FIXa-K247N/N249S/R318Y/T343R/R403E (protein)
chain 1: not shown
chain 2: not shown
B6: FIXa-Y155F/K247N/N249S/R318Y/T343R/E410N (protein)
chain 1: not shown
chain 2: not shown
B7: FIXa-K247N/N249S/R318Y/T343R/E410N (protein)
chain 1: not shown
chain 2: not shown
B8: FIXa-Y155F/K247N/N249S/R338E/T343R/R403E (protein)
chain 1: not shown
chain 2: not shown
B9: FIXa-Y155F/K247N/N249S/R338E/T343R/E410N (protein)
chain 1: not shown
chain 2: not shown
B10: FIXa-K247N/N249S/R338E/T343R/E410N (protein)
chain 1: not shown
chain 2: not shown
B11: FIXa-Y155F/K247N/N249S/T343R/R403E/E410N (protein)
chain 1: not shown
chain 2: not shown
B12: FIXa-Y155F/K247N/N249S/R338E/R403E/E410N (protein)
chain 1: not shown
chain 2: not shown
B13: FIXa-K247N/N249S/R338E/R403E/E410N (protein)
chain 1: not shown
chain 2: not shown
B14: FIXa-R318Y/R338E/T343R/R403E (protein)
chain 1: not shown
chain 2: not shown

Key:
[1] = target: Factor X, P00742
Sequence of Factor X, P00742 (P00742 whole entry, looked up): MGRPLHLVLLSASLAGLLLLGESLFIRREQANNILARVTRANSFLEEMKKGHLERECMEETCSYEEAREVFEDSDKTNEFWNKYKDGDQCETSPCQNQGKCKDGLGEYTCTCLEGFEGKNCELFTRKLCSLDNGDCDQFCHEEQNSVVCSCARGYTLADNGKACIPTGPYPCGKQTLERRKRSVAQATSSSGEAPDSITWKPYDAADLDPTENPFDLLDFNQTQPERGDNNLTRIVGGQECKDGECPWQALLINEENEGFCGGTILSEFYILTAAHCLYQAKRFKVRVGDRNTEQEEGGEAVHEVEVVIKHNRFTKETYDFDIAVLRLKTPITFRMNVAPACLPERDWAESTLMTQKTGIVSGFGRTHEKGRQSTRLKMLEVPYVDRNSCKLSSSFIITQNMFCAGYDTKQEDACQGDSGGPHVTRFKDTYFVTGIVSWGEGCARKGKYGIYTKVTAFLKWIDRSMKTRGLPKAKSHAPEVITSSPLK

[2] = target: Factor X (FX), P00742
Sequence of Factor X (FX), P00742 (P00742 whole entry, looked up): as above

Row | Protein | KM [1] [nM] | kcat [2] [s⁻¹] | kcat/KM [1] [M⁻¹ s⁻¹] | KM [2] [nM]
1 | B1 | 60.6 | 9 | – | –
2 | B2 | 80.5 | 9.5 | – | –
3 | B3 | 17.7 | 7.3 | – | –
4 | B4 | 60.5 | 7.5 | – | –
5 | B5 | 105 | 3.7 | – | –
6 | B6 | 38.1 | 8.1 | – | –
7 | B7 | 40.1 | 6.1 | – | –
8 | B8 | 25.1 | 14.6 | – | –
9 | B9 | 27 | 4.8 | – | –
10 | B10 | 27.5 | 7.9 | – | –
11 | B11 | 52 | 15 | – | –
12 | B12 | – | – | 1.1e+08 | 48.7
13 | B13 | – | – | 1.9e+08 | 25
14 | B14 | – | – | 1.6e+08 | 44.3
